# Patent EP4606823A1 (Bristar Immunotech Limited, dated 2025)
# T1: mouse LILRB4 (mouse, UniProt Q64281 24-335)
# T1 construct: whole, on cells; also called 293T-mouse LILRB4
# T1 sequence (looked up): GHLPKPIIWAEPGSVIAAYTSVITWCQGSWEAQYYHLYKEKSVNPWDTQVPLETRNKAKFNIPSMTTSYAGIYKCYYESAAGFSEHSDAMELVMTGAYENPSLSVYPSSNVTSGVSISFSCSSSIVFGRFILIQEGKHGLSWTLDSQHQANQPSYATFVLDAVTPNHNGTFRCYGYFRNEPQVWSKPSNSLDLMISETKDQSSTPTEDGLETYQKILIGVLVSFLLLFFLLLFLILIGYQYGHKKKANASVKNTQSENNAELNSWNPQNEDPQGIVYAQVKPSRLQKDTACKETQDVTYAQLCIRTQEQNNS
# Tests used:
# LILRA1 = biological target: T2, LILRA1 (UniProt O75019 17-489, limits assumed); test: flow cytometry on 293T cells expressing the protein
# T2 construct: whole, on cells
# LILRA4 = biological target: T3, LILRA4 (UniProt P59901 24-499, limits assumed); test: as above
# T3 construct: whole, on cells
# LILRB2 = biological target: T4, LILRB2 (UniProt Q8N423 22-597, limits assumed); test: as above
# T4 construct: whole, on cells
# LILRA5 = biological target: T5, LILRA5 (UniProt A6NI73 42-299, limits assumed); test: as above
# T5 construct: whole, on cells
# LILRB5 = biological target: T6, LILRB5 (UniProt O75023 24-590, limits assumed); test: as above
# T6 construct: whole, on cells
# LILRA3 = biological target: T7, LILRA3 (UniProt Q8N6C8 24-439, limits assumed); test: as above
# T7 construct: whole, on cells
# LILRB1 = biological target: T8, LILRB1 (UniProt Q8NHL6 24-650, limits assumed); test: as above
# T8 construct: whole, on cells
# LILRB3 = biological target: T9, LILRB3 (UniProt O75022 24-631, limits assumed); test: as above
# T9 construct: whole, on cells
# LILRA6 = biological target: T10, LILRA6 (UniProt Q6PI73 24-481, limits assumed); test: as above
# T10 construct: whole, on cells
# LILRA2 = biological target: T11, LILRA2 (UniProt Q8N149 24-483, limits assumed); test: as above
# T11 construct: whole, on cells
# LILRB4 protein = biological target: T12, LILRB4 protein (UniProt Q8NHJ6 22-259); test: SPR (Biacore 8K); VHH-Fc captured by anti-human IgG(Fc) on CM5 chip, LILRB4 protein as analyte 0.977-62.5 nM; 1:1 binding fit
# T12 construct: also called Pro-LB
# mouse LILRB4 = biological target: T1, mouse LILRB4; test: flow cytometry on 293T-mouse LILRB4
# stock region of LILRB4 = biological target: T13, stock region of LILRB4 (UniProt Q8NHJ6 219-259, limits assumed); test: flow cytometry
# T13 construct: domain: stock region
# T13 sequence (Q8NHJ6 219-259 limits assumed): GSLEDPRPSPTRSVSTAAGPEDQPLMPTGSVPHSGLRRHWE
# T6 sequence (O75023 24-590 limits assumed): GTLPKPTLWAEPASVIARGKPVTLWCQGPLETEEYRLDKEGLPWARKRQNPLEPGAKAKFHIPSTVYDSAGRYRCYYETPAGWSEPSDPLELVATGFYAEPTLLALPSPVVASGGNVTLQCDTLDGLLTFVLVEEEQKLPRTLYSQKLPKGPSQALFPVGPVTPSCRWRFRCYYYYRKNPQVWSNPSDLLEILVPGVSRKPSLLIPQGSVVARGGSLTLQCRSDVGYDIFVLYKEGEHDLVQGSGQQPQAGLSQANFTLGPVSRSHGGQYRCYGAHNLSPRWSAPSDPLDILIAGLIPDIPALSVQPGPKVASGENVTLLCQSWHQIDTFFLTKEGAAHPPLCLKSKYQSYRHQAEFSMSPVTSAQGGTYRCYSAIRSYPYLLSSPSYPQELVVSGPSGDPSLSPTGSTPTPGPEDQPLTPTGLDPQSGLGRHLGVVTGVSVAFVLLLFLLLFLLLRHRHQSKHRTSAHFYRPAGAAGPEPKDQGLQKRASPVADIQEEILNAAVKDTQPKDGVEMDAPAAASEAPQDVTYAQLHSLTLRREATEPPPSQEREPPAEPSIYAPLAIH
# T3 sequence (P59901 24-499 limits assumed): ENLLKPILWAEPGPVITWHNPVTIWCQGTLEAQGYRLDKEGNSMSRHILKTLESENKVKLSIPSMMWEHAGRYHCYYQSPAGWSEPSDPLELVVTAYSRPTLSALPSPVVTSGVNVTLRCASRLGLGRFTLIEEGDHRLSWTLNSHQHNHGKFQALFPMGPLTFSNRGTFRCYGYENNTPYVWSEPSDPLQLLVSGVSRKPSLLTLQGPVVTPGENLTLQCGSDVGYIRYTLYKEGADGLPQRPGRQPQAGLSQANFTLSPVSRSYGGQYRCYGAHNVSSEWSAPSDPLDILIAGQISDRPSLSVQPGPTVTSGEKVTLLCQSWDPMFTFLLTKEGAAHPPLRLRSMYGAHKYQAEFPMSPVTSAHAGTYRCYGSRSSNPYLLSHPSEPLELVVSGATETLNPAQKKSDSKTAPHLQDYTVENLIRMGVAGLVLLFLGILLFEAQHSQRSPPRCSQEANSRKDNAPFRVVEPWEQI
# T8 sequence (Q8NHL6 24-650 limits assumed): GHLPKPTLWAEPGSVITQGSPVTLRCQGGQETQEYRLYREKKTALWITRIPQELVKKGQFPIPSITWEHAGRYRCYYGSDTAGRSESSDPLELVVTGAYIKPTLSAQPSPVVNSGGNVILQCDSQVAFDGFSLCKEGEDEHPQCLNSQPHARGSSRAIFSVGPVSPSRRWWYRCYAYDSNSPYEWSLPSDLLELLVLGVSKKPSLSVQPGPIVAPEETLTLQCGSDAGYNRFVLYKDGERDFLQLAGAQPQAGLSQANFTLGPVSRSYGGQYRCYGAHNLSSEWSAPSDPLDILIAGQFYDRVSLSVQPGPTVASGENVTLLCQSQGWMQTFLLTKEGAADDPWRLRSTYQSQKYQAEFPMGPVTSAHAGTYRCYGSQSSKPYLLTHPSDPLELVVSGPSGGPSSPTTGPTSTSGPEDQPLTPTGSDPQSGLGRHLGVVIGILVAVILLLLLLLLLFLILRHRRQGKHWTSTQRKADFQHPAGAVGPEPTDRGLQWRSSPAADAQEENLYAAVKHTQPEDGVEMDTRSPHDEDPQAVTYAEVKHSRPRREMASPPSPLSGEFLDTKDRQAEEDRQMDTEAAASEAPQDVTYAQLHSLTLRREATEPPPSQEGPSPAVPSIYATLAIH
# T5 sequence (A6NI73 42-299 limits assumed): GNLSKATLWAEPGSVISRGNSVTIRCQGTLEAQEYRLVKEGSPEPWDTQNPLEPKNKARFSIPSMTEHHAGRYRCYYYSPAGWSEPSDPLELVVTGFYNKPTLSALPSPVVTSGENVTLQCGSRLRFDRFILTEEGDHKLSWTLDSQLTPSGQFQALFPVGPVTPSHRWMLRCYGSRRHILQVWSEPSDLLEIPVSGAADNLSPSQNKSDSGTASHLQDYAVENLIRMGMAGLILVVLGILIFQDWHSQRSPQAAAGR
# T2 sequence (O75019 17-489 limits assumed): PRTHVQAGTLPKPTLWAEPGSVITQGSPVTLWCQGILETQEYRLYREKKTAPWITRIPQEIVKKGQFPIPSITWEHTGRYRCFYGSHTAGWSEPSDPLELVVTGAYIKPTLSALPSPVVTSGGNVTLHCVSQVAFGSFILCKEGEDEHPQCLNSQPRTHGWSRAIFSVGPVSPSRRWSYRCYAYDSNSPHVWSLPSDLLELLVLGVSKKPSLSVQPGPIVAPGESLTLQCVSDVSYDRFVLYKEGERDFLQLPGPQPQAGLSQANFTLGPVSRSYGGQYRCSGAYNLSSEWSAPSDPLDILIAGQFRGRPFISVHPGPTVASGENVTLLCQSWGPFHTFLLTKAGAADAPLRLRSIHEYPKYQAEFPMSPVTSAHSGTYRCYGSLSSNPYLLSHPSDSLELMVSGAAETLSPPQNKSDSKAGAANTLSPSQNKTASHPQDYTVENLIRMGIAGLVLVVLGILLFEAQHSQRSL
# T4 sequence (Q8N423 22-597 limits assumed): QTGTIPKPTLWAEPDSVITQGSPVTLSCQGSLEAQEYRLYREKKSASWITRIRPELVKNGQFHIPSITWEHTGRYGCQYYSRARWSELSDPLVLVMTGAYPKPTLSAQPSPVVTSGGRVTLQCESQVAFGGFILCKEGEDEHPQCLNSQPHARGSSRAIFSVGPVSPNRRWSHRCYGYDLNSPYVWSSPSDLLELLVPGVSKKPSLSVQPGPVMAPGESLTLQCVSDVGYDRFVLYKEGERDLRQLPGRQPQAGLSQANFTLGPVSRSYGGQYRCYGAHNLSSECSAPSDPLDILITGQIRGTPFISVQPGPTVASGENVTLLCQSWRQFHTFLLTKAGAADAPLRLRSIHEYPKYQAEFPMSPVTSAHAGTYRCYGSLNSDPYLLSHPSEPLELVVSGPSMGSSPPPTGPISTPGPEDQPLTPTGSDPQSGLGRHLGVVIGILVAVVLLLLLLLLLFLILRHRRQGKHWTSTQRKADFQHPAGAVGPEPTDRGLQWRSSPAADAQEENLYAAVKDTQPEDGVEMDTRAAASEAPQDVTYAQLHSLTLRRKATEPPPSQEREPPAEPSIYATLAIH
# T10 sequence (Q6PI73 24-481 limits assumed): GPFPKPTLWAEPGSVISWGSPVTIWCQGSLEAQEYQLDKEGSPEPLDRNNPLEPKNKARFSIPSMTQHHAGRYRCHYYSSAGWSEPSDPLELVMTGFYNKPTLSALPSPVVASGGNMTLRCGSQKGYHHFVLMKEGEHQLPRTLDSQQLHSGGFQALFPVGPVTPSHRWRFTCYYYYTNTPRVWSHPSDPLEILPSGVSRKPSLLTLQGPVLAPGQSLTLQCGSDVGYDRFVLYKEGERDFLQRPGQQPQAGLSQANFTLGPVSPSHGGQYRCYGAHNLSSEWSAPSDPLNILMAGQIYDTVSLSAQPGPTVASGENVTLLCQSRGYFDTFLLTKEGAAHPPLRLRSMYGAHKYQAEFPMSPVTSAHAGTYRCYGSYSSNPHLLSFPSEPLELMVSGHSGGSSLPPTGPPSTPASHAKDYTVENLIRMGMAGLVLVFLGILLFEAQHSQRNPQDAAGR
# T11 sequence (Q8N149 24-483 limits assumed): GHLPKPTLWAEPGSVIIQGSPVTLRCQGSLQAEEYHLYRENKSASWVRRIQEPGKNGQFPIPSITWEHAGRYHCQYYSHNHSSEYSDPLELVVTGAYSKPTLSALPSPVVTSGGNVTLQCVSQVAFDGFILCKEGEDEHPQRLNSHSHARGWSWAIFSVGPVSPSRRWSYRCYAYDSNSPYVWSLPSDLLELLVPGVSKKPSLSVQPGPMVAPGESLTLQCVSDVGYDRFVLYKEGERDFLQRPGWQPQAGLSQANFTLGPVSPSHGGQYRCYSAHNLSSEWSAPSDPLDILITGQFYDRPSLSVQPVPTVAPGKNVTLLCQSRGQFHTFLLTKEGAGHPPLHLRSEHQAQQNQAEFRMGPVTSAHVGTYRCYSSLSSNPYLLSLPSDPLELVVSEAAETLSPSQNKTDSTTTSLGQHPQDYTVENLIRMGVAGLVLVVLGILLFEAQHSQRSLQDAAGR
# T9 sequence (O75022 24-631 limits assumed): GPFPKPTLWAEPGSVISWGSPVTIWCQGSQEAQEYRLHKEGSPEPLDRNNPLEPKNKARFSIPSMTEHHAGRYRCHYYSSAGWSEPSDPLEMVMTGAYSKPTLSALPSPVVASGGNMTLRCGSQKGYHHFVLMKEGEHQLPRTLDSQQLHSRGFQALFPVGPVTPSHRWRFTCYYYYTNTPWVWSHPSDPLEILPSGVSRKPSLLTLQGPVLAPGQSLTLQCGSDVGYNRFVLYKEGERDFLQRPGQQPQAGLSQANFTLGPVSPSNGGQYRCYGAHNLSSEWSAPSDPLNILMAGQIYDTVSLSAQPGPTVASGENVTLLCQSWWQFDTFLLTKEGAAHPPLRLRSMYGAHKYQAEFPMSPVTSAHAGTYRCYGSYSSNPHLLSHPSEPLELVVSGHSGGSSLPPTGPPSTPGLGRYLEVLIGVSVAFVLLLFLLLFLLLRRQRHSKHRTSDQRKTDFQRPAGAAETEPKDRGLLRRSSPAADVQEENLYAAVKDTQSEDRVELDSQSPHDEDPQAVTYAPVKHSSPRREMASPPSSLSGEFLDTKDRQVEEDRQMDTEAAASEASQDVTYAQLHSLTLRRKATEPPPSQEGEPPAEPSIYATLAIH
# T7 sequence (Q8N6C8 24-439 limits assumed): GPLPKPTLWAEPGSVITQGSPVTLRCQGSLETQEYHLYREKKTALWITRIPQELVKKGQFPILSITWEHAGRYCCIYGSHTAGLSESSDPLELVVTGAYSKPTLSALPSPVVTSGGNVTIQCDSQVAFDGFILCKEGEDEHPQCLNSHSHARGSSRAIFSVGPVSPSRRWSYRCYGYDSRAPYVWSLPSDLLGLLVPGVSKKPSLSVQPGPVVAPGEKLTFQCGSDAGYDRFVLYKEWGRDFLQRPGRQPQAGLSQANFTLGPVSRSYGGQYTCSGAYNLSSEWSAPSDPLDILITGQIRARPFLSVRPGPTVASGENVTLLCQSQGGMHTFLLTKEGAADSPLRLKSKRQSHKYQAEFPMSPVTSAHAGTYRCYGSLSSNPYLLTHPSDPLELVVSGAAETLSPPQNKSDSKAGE
binding result (LILRA1),binding result (LILRA4),binding result (LILRB2),binding result (LILRA5),binding result (LILRB5),binding result (LILRA3),binding result (LILRB1),binding result (LILRB3),binding result (LILRA6),binding result (LILRA2),Kd (LILRB4 protein) [nM],koff (LILRB4 protein) [s⁻¹],kon (LILRB4 protein) [M⁻¹ s⁻¹],binding result (mouse LILRB4),binding result (stock region of LILRB4),Binder
no binding,no binding,no binding,no binding,no binding,no binding,no binding,no binding,no binding,no binding,1.32,0.000551,418000,no binding,no binding,"NLB4 VHH antibody fused with human IgG1 (Fc) (Fc fusion, also called NLB(G4S)IGG1FC; NLB4 nanobody; not shown: human IgG1 Fc) DVQLQESGGGLVQSGGSLRLSCLASGTSGNVKAVGWYGWYRQAPGKQREVVATITRGGIPNYADSVQGRFTISRDNAQDTVFLQMNSLKPADTAVYYCYARILTDDWHDLWGQGTQVTVSSGGGGS"
no binding,no binding,no binding,no binding,no binding,no binding,no binding,no binding,no binding,no binding,0.493,0.000301,612000,no binding,no binding,"NLB14 VHH antibody fused with human IgG1 (Fc) (Fc fusion, also called NLB(G4S)IGG1FC; NLB14 nanobody; not shown: human IgG1 Fc) DVQLQESGGGLVQPGGSLRLSCAASGFTLDYYAIGWFRQAPGKEREGVSCVSSSDGSTYYADSVKGRFTISRDNAKNTVYLQMNSLKPEDTAVYYCAADQYSSTWTIRLTRCHFGSWGQGTQVTVSSGGGGS"
